{
  "source": "paper PMC8594432",
  "about": "“One-step, kit-based radiopharmaceuticals for molecular SPECT imaging: a versatile diphosphine chelator for ^99mTc radiolabelling of peptides” (Dalton Transactions (Cambridge, England : 2003), 2021)",
  "type": "physicochemical",
  "description": "Reaction of RGD with BMA[21,22] in a basic solution of DMF followed by semi-preparative reverse-phase C18 HPLC provided the diphosphine conjugate DP-RGD (Scheme 1) in ≥95% purity and 86% yield. DP-RGD was characterised by ^1H, ^13C and ^31P NMR, analytical HPLC and HR-ESI-MS (Fig. S1–S6 and Tables S1, S2 ^†).",
  "data": [
    {"smiles": "N=C(N)NCCC[C@@H]1NC(=O)[C@H](CCCCNC(=O)/C(=C(\\C(=O)O)P(c2ccccc2)c2ccccc2)P(c2ccccc2)c2ccccc2)NC(=O)[C@@H](Cc2ccccc2)NC(=O)[C@H](CC(=O)O)NC(=O)CNC1=O", "note": "[DP-RGD]", "values": [
      {"measurement": "stability in acidic solutions (in words)", "value": "decomposed to re-form RGD and BMA"},
      {"measurement": "stability to oxidation in solution (in words)", "value": "slowly oxidised in solution to phosphine oxide derivatives"},
      {"measurement": "stability to oxidation in the solid state (in words)", "value": "stable to oxidation"}
    ]}
  ]
}
